T1: Cynomolgus TCR(AEA41865/AEA41866)-zipper protein (cynomolgus monkey)
T1 construct: also called cyTCR-zipper protein; cynoTCR zipper
T1 TCR alpha: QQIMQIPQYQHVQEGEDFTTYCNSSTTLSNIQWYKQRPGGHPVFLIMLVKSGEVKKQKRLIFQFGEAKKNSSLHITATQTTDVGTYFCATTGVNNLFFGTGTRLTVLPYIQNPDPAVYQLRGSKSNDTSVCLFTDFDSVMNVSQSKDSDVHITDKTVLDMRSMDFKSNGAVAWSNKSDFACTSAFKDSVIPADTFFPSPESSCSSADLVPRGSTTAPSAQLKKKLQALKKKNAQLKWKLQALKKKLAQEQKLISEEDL
T1 TCR beta: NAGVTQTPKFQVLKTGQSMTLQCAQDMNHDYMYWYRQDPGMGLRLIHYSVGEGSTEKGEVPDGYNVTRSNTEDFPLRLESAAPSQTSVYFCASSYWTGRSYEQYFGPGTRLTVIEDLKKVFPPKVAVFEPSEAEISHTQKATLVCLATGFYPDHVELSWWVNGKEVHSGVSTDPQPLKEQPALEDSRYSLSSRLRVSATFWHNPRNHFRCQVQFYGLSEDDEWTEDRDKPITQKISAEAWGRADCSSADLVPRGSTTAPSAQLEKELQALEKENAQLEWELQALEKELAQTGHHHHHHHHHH

T2: Human T cell receptor on human primary T cells (human, UniProt P01848 1-140; P01850 1-176)
T2 TCR alpha (looked up): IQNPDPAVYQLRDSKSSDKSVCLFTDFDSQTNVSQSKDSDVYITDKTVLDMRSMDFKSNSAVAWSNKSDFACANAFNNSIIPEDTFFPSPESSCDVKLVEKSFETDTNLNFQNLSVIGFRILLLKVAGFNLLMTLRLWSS
T2 TCR beta (looked up): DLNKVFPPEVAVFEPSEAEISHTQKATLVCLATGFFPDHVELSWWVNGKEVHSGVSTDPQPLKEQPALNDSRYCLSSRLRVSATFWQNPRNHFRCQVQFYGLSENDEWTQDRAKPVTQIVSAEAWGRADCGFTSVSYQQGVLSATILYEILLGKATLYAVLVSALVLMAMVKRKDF

B1: T017000161 (VHH)
VHH: EVQLVESGGGVVQPGGSLRLSCVASGEVHKINFLGWYRQAPGKEREKVAHISIGDQTDYADSAKGRFTISRDESKNMVYLQMNSLRPEDTALYFCRAFSRIYPYDYWGQGTLVTVSS
B2: T017000164 (VHH)
VHH: EVQLVESGGGVVQPGGSLRLSCVASGYVHKINFLGWYRQAPGKEREKVAHISIGDQTDYADSAKGRFTISRDESKNMVYLQMNSLRPEDTALYFCRAFSRIYPYDYWGQGTLVTVSS
B3: T017000628 (bispecific antibody)
chain: DVQLVESGGGVVQPGGSLRLSCVASYDVHKINFYGWYRQAPGKEREKVAHISIGDQTDYADSAKGRFTISRDESKNTVYLQMNSLRPEDTALYYCRALSKIWPYDYWGQGTLVTVSSGGGGSGGGGSGGGGSGGGGSGGGGSGGGGSGGGGSEVQLVESGGGLVQAGGSLRLSCAASGITSKINDMGWYRQTPGNYREWVASITATGTTNYRDSVKGRFTISRDNAKSTVYLQMNSLKPEDTTVYYCNTFPPISNFWGQGTLVTVSSA
B4: T017000547 (VHH)
VHH: EVQLVESGGGVVQPGGSLRLSCVASGAVHKLNFYGWYRQAPGKEREKVAHISIGDQTDYADSAKGRFTISRDESKNMVYLQMNSLRPEDTALYFCRAFSRIWPYDYWGQGTLVTVSS
B5: T017000550 (VHH)
VHH: EVQLVESGGGVVQPGGSLRLSCVASGSVHQINFLGWYRQAPGKEREKVAHISIGDQTDYADSAKGRFTISRDESKNMVYLQMNSLRPEDTALYFCRAMSRIYPYDWWGQGTLVTVSS
B6: T017000554 (VHH)
VHH: EVQLVESGGGVVQPGGSLRLSCVASYDVHQINFLGWYRQAPGKEREKVAHISIGDQTDYADSAKGRFTISRDESKNMVYLQMNSLRPEDTALYFCRAMSKIYPYDYWGQGTLVTVSS
B7: T017000566 (VHH)
VHH: EVQLVESGGGVVQPGGSLRLSCVASGYVHKLNFLGWYRQAPGKEREKVAHISIGDQTDYADSAKGRFTISRDESKNMVYLQMNSLRPEDTALYFCRAMSRIWPYDWWGQGTLVTVSS
B8: T017000577 (VHH)
VHH: EVQLVESGGGVVQPGGSLRLSCVASWDVHQINFLGWYRQAPGKEREKVAHISIGDQTDYADSAKGRFTISRDESKNMVYLQMNSLRPEDTALYFCRAMSRIYPYDYWGQGTLVTVSS
B9: T017000578 (VHH)
VHH: EVQLVESGGGVVQPGGSLRLSCVASYDVHQLNFYGWYRQAPGKEREKVAHISIGDQTDYADSAKGRFTISRDESKNMVYLQMNSLRPEDTALYFCRAMSRIWPYDYWGQGTLVTVSS
B10: T017000588 (VHH)
VHH: EVQLVESGGGVVQPGGSLRLSCVASGAVHKINFYGWYRQAPGKEREKVAHISIGDQTDYADSAKGRFTISRDESKNMVYLQMNSLRPEDTALYFCRAMSKIWPYDYWGQGTLVTVSS
B11: T017000589 (VHH)
VHH: EVQLVESGGGVVQPGGSLRLSCVASGYVHKLNFYGWYRQAPGKEREKVAHISIGDQTDYADSAKGRFTISRDESKNMVYLQMNSLRPEDTALYFCRAMSRIWPYDWWGQGTLVTVSS
B12: T017000593 (VHH)
VHH: EVQLVESGGGVVQPGGSLRLSCVASGAVHKLNFYGWYRQAPGKEREKVAHISIGDQTDYADSAKGRFTISRDESKNMVYLQMNSLRPEDTALYFCRAMSKIWPYDYWGQGTLVTVSS
B13: T017000607 (VHH)
VHH: EVQLVESGGGVVQPGGSLRLSCVASWDVHQINFYGWYRQAPGKEREKVAHISIGDQTDYADSAKGRFTISRDESKNMVYLQMNSLRPEDTALYFCRAFSKIWPYDYWGQGTLVTVSS
B14: T017000608 (VHH)
VHH: EVQLVESGGGVVQPGGSLRLSCVASWDVHKINFYGWYRQAPGKEREKVAHISIGDQTDYADSAKGRFTISRDESKNMVYLQMNSLRPEDTALYFCRAFSKIWPYDYWGQGTLVTVSS
B15: T017000609 (VHH)
VHH: EVQLVESGGGVVQPGGSLRLSCVASGDVHQINFLGWYRQAPGKEREKVAHISIGDQTDYADSAKGRFTISRDESKNMVYLQMNSLRPEDTALYFCRAFSKIYPYDYWGQGTLVTVSS
B16: T017000610 (VHH)
VHH: EVQLVESGGGVVQPGGSLRLSCVASGDVHQINFLGWYRQAPGKEREKVAHISIGDQTDYADSAKGRFTISRDESKNMVYLQMNSLRPEDTALYFCRALSKIYPYDYWGQGTLVTVSS
B17: T017000611 (VHH)
VHH: EVQLVESGGGVVQPGGSLRLSCVASGDVHQINFYGWYRQAPGKEREKVAHISIGDQTDYADSAKGRFTISRDESKNMVYLQMNSLRPEDTALYFCRAFSKIYPYDYWGQGTLVTVSS
B18: T017000612 (VHH)
VHH: EVQLVESGGGVVQPGGSLRLSCVASGDVHQLNFLGWYRQAPGKEREKVAHISIGDQTDYADSAKGRFTISRDESKNMVYLQMNSLRPEDTALYFCRALSKIYPYDYWGQGTLVTVSS
B19: T017000614 (VHH)
VHH: EVQLVESGGGVVQPGGSLRLSCVASGYVHKINFYGWYRQAPGKEREKVAHISIGDQTDYADSAKGRFTISRDESKNMVYLQMNSLRPEDTALYFCRALSRIWPYDYWGQGTLVTVSS
B20: T017000740 (VHH)
VHH: EVQLVESGGGVVQPGGSLRLSCVASWDVHQLNFYGWYRQAPGKEREKVAHISIGDQTDYADSAKGRFTISRDESKNMVYLQMNSLRPEDTALYFCRAMSKIYPYDYWGQGTLVTVSS
B21: T017000742 (VHH)
VHH: EVQLVESGGGVVQPGGSLRLSCVASGYVHQINFYGWYRQAPGKEREKVAHISIGDQTDYADSAKGRFTISRDESKNMVYLQMNSLRPEDTALYFCRAMSRIWPYDWWGQGTLVTVSS
B22: T017000750 (VHH)
VHH: EVQLVESGGGVVQPGGSLRLSCVASYAVHQINFYGWYRQAPGKEREKVAHISIGDQTDYADSAKGRFTISRDESKNMVYLQMNSLRPEDTALYFCRAMSRIWPYDYWGQGTLVTVSS
B23: T017000754 (VHH)
VHH: EVQLVESGGGVVQPGGSLRLSCVASGYVHQINFLGWYRQAPGKEREKVAHISIGDQTDYADSAKGRFTISRDESKNMVYLQMNSLRPEDTALYFCRAMSKIWPYDYWGQGTLVTVSS
B24: T017000757 (VHH)
VHH: EVQLVESGGGVVQPGGSLRLSCVASGAVHKLNFLGWYRQAPGKEREKVAHISIGDQTDYADSAKGRFTISRDESKNMVYLQMNSLRPEDTALYFCRAFSKIWPYDWWGQGTLVTVSS
B25: T017000759 (VHH)
VHH: EVQLVESGGGVVQPGGSLRLSCVASGSVHKINFYGWYRQAPGKEREKVAHISIGDQTDYADSAKGRFTISRDESKNMVYLQMNSLRPEDTALYFCRAFSKIWPYDWWGQGTLVTVSS
B26: T017000766 (VHH)
VHH: EVQLVESGGGVVQPGGSLRLSCVASGYVHKINFYGWYRQAPGKEREKVAHISIGDQTDYADSAKGRFTISRDESKNMVYLQMNSLRPEDTALYFCRAMSKIYPYDYWGQGTLVTVSS
B27: T017000774 (VHH)
VHH: EVQLVESGGGVVQPGGSLRLSCVASGDVHQINFYGWYRQAPGKEREKVAHISIGDQTDYADSAKGRFTISRDESKNMVYLQMNSLRPEDTALYFCRAMSKIWPYDYWGQGTLVTVSS
B28: T017000776 (VHH)
VHH: EVQLVESGGGVVQPGGSLRLSCVASWSVHQINFYGWYRQAPGKEREKVAHISIGDQTDYADSAKGRFTISRDESKNMVYLQMNSLRPEDTALYFCRAMSKIWPYDYWGQGTLVTVSS

Biological target: T1, Cynomolgus …
Test: SPR ProteOn off-rate screen
Text: Unique ISVD clones, i.e. clones with a unique sequence, were subsequently selected and screened to determine their off-rate. To this purpose, the ISVD containing periplasmic extracts were screened on huTCR-zipper and cyTCR-zipper protein by SPR on a ProteOn XPR36 instrument. The zipper proteins were immobilized on a GLC sensor chip (between 4300 and 5100RU) via amine coupling chemistry, using EDC/sulfo-NHS for activation of the carboxyl groups on the chip surface (running buffer: HBS-EP+, pH7.4). Periplasmic extracts were injected at 1/10 dilution for 2 min (at a flow rate of 45 μL/min) and dissociation was followed for 900 s. A pulse of 100 s of 3 M MgCl2 at 45 μL/min was used for regeneration. […] Processed sensorgrams were fitted with the Langmuir model (1:1 interaction) using ProteOn Manager 3.1.0 (Version 3.1.0.6) software.
Throughout, for % Lysis, T cell mediated MOLM-13 cell killing, human primary T cells, E:T 10:1: test concentration or dose not given here.

Binder | koff [s⁻¹]
B1 | 0.00624
B2 | 0.00412

Biological target: T2, Human T cell receptor on human primary …
Test: cell-based or functional assay

Binder | % Lysis, T cell mediated MOLM-13 cell killing, human primary T cells, E:T 10:1 [%] | EC50 (M), T cell mediated MOLM-13 cell killing, human primary T cells, E:T 10:1 [M]
B3 | 39 | 1.6e-10

biological target: Cynomolgus T cell receptor on cynomolgus primary T cells (cynomolgus monkey); test: cell-based or functional assay; for % Lysis, T cell mediated MOLM-13 cell killing, cynomolgus primary T cells, E:T 10:1: test concentration or dose not given here

Binder | % Lysis, T cell mediated MOLM-13 cell killing, cynomolgus primary T cells, E:T 10:1 [%] | EC50 (M), T cell mediated MOLM-13 cell killing, cynomolgus primary T cells, E:T 10:1 [M]
B3 | 40 | 2e-11

Biological target: T1, Cynomolgus …
Test: SPR ProteOn off-rate screen
Remark: another data set of the same source

Binder | koff [s⁻¹]
B4 | 0.00156
B5 | 0.0095
B6 | 0.000767
B7 | 0.00164
B8 | 0.00188
B9 | 0.00349
B10 | 0.000158
B11 | 0.00115
B12 | 0.00019
B13 | 0.000316
B14 | 0.000472
B15 | 0.00114
B16 | 0.000857
B17 | 0.00171
B18 | 0.00105
B19 | 0.00116
B20 | 0.000391
B21 | 0.00391
B22 | 0.00373
B23 | 0.000237
B24 | 0.000603
B25 | 0.00101
B26 | 0.000239
B27 | 0.000431
B28 | 0.000525

Reference: patent US20240092919A1 (Ablynx, published 2024)
